According to US20070036799A1 (MacroGenics, published 2007):
Where two headings read alike, the source gives them in different places. Values belong to the binder of their own block, whether it stands above or below them.

Key:
[1] = target: T1, FcγRIIB-Fc fusion protein (soluble dimeric FcγRIIB) (human, UniProt P31994 43-217); assay: SPR
T1 construct: extracellular domain; the suffix agl in 2bfcagl is not explained; also called FcRIIB-Fc; FcγRIIB-G2; not shown: hinge-CH2-CH3 domain of human IgG2
T1 sequence (looked up): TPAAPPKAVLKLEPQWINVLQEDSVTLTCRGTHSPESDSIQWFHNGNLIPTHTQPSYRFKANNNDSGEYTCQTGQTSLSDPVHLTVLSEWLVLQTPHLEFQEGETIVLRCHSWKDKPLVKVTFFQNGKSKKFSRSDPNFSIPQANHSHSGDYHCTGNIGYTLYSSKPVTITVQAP

[2] = target: T1, FcγRIIB-Fc fusion protein (soluble …); assay: SPR; remark: listed apart in the source
[3] = target: T2, soluble monomeric FcγRIIIA-linker-AVITAG (158V), biotinylated (human, UniProt P08637 17-203, biotin on the AVITAG lysine (BirA)); assay: ELISA
T2 construct: range 1-203; used as monomer in ELISA and BIAcore; also called FcR3A; FcRIIIa; not shown: linker-AVITAG (15 aa AVITAG) at the C-terminus; only the coding oligonucleotide is given

[4] = target: T1, FcγRIIB-Fc fusion protein (soluble …); assay: ELISA
[5] = target: T2, soluble monomeric …; assay: SPR
[6] = target: T2, soluble monomeric …; assay: ELISA; remark: listed apart in the source
[7] = target: T2, soluble monomeric …; assay: ELISA; remark: listed apart in the source
[8] = target: T1, FcγRIIB-Fc fusion protein (soluble …); assay: ELISA; remark: listed apart in the source
[9] = target: T1, FcγRIIB-Fc fusion protein (soluble …); assay: ELISA; remark: listed apart in the source
[10] = target: T2, soluble monomeric …; assay: SPR; remark: listed apart in the source

T2 sequence (P08637 17-203 F176V limits assumed, form in doubt): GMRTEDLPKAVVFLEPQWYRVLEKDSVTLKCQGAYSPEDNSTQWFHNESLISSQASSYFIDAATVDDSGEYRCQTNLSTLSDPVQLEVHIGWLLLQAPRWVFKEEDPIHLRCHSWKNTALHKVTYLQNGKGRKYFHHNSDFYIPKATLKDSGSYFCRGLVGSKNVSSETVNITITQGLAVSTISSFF

Kd [1]: 33.4 nM | Kd [2]: 41.3 nM | ELISA, OD [3]: 1 OD | ELISA, OD [4]: 1.2 OD
B1: ch4-4-20 K288N, A330S, P396L (antibody)
chain: EPKSCDKTHTCPPCPAPELLGGPSVFLFPPKPKDTLMISRTPEVTCVVVDVSHEDPEVKFNWYVDGVEVHNANTKPREEQYNSTYRVVSVLTVLHQDWLNGKEYKCKVSNKALPSPIEKTISKAKGQPREPQVYTLPPSREEMTKNQVSLTCLVKGFYPSDIAVEWESNGQPENNYKTTPLVLDSDGSFFLYSKLTVDKSRWQQGNVFSCSVMHEALHNHYTQKSLSLSPGK

Kd [5]: 125 nM | Kd [1]: 55.7 nM | fold vs wt [6]: 3.5 X
B2: ch4-4-20 Y319F, P352L, P396L (antibody)
chain: EPKSCDKTHTCPPCPAPELLGGPSVFLFPPKPKDTLMISRTPEVTCVVVDVSHEDPEVKFNWYVDGVEVHNAKTKPREEQYNSTYRVVSVLTVLHQDWLNGKEFKCKVSNKALPAPIEKTISKAKGQPREPQVYTLLPSREEMTKNQVSLTCLVKGFYPSDIAVEWESNGQPENNYKTTPLVLDSDGSFFLYSKLTVDKSRWQQGNVFSCSVMHEALHNHYTQKSLSLSPGK

Kd [1]: 86 nM
B3: ch4-4-20 E293V, Q295E, A327T (antibody)
chain: EPKSCDKTHTCPPCPAPELLGGPSVFLFPPKPKDTLMISRTPEVTCVVVDVSHEDPEVKFNWYVDGVEVHNAKTKPRVEEYNSTYRVVSVLTVLHQDWLNGKEYKCKVSNKTLPAPIEKTISKAKGQPREPQVYTLPPSREEMTKNQVSLTCLVKGFYPSDIAVEWESNGQPENNYKTTPPVLDSDGSFFLYSKLTVDKSRWQQGNVFSCSVMHEALHNHYTQKSLSLSPGK

Kd [5]: 72 nM | koff [5]: 0.117 s⁻¹ | Kd [1]: 46 nM | koff [1]: 0.06 s⁻¹ | fold vs wt [7]: 1.5 x increase | fold vs wt [8]: 14 x increase | fold vs wt [6]: 1.5 X | fold vs wt [9]: 14 X
B4: ch4-4-20 G316D, A378V, D399E (antibody)
chain: ASTKGPSVFPLAPSSKSTSGGTAALGCLVKDYFPEPVTVSWNSGALTSGVHTFPAVLQSSGLYSLSSVVTVPSSSLGTQTYICNVNHKPSNTKVDKKVEPKSCDKTHTCPPCPAPELLGGPSVFLFPPKPKDTLMISRTPEVTCVVVDVSHEDPEVKFNWYVDGVEVHNAKTKPREEQYNSTYRVVSVLTVLHQDWLNDKEYKCKVSNKALPAPIEKTISKAKGQPREPQVYTLPPSRDELTKNQVSLTCLVKGFYPSDIVVEWESNGQPENNYKTTPPVLESDGSFFLYSKLTVDKSRWQQGNVFSCSVMHEALHNHYTQKSLSLSPGK

Kd [5]: 55.2 nM | koff [5]: 0.128 s⁻¹ | Kd [1]: 72 nM | koff [1]: 0.11 s⁻¹ | fold vs wt [7]: 1.5 x increase | fold vs wt [6]: 1.5 X
B5: ch4-4-20 K334E, T359N, T366S (antibody)
chain: ASTKGPSVFPLAPSSKSTSGGTAALGCLVKDYFPEPVTVSWNSGALTSGVHTFPAVLQSSGLYSLSSVVTVPSSSLGTQTYICNVNHKPSNTKVDKKVEPKSCDKTHTCPPCPAPELLGGPSVFLFPPKPKDTLMISRTPEVTCVVVDVSHEDPEVKFNWYVDGVEVHNAKTKPREEQYNSTYRVVSVLTVLHQDWLNGKEYKCKVSNKALPAPIEETISKAKGQPREPQVYTLPPSRDELNKNQVSLSCLVKGFYPSDIAVEWESNGQPENNYKTTPPVLDSDGSFFLYSKLTVDKSRWQQGNVFSCSVMHEALHNHYTQKSLSLSPGK

Kd [1]: 93.4 nM | koff [1]: 0.101 s⁻¹
B6: ch4-4-20 F243I, V379L, G420V (antibody)
chain: ASTKGPSVFPLAPSSKSTSGGTAALGCLVKDYFPEPVTVSWNSGALTSGVHTFPAVLQSSGLYSLSSVVTVPSSSLGTQTYICNVNHKPSNTKVDKKVEPKSCDKTHTCPPCPAPELLGGPSVFLIPPKPKDTLMISRTPEVTCVVVDVSHEDPEVKFNWYVDGVEVHNAKTKPREEQYNSTYRVVSVLTVLHQDWLNGKEYKCKVSNKALPAPIEKTISKAKGQPREPQVYTLPPSRDELTKNQVSLTCLVKGFYPSDIALEWESNGQPENNYKTTPPVLDSDGSFFLYSKLTVDKSRWQQVNVFSCSVMHEALHNHYTQKSLSLSPGK

fold vs wt [7]: 0.5 x increase
B7: ch4-4-20 V348M, K334N, F275I, Y202M, K147T (antibody)
chain: ASTKGPSVFPLAPSSKSTSGGTAALGCLVTDYFPEPVTVSWNSGALTSGVHTFPAVLQSSGLYSLSSVVTVPSSSLGTQTYICNMNHKPSNTKVDKKVEPKSCDKTHTCPPCPAPELLGGPSVFLFPPKPKDTLMISRTPEVTCVVVDVSHEDPEVKINWYVDGVEVHNAKTKPREEQYNSTYRVVSVLTVLHQDWLNGKEYKCKVSNKALPAPIENTISKAKGQPREPQMYTLPPSRDELTKNQVSLTCLVKGFYPSDIAVEWESNGQPENNYKTTPPVLDSDGSFFLYSKLTVDKSRWQQGNVFSCSVMHEALHNHYTQKSLSLSPGK

Koff WT/Koff MUT [10]: 10.1 ratio
B8: ch4D5 MGFc0088A (F243L, R292P, Y300L, P396L) (antibody)
chain: ASTKGPSVFPLAPSSKSTSGGTAALGCLVKDYFPEPVTVSWNSGALTSGVHTFPAVLQSSGLYSLSSVVTVPSSSLGTQTYICNVNHKPSNTKVDKKVEPKSCDKTHTCPPCPAPELLGGPSVFLLPPKPKDTLMISRTPEVTCVVVDVSHEDPEVKFNWYVDGVEVHNAKTKPPEEQYNSTLRVVSVLTVLHQDWLNGKEYKCKVSNKALPAPIEKTISKAKGQPREPQVYTLPPSRDELTKNQVSLTCLVKGFYPSDIAVEWESNGQPENNYKTTPLVLDSDGSFFLYSKLTVDKSRWQQGNVFSCSVMHEALHNHYTQKSLSLSPGK

Koff WT/Koff MUT [10]: 2.56 ratio
B9: ch4D5 MGFc0074 (F243L, R292P, V305I) (antibody)
chain: ASTKGPSVFPLAPSSKSTSGGTAALGCLVKDYFPEPVTVSWNSGALTSGVHTFPAVLQSSGLYSLSSVVTVPSSSLGTQTYICNVNHKPSNTKVDKKVEPKSCDKTHTCPPCPAPELLGGPSVFLLPPKPKDTLMISRTPEVTCVVVDVSHEDPEVKFNWYVDGVEVHNAKTKPPEEQYNSTYRVVSILTVLHQDWLNGKEYKCKVSNKALPAPIEKTISKAKGQPREPQVYTLPPSRDELTKNQVSLTCLVKGFYPSDIAVEWESNGQPENNYKTTPPVLDSDGSFFLYSKLTVDKSRWQQGNVFSCSVMHEALHNHYTQKSLSLSPGK

fold vs wt [8]: 4 x increase
B10: ch4-4-20 T215P, K274N, A287G, K334N, L365V, P396L (antibody)
chain: PEPKSCDKTHTCPPCPAPELLGGPSVFLFPPKPKDTLMISRTPEVTCVVVDVSHEDPEVNFNWYVDGVEVHNGKTKPREEQYNSTYRVVSVLTVLHQDWLNGKEYKCKVSNKALPAPIENTISKAKGQPREPQVYTLPPSRDELTKNQVSVTCLVKGFYPSDIAVEWESNGQPENNYKTTPLVLDSDGSFFLYSKLTVDKSRWQQGNVFSCSVMHEALHNHYTQKSLSLSPGK

fold vs wt [8]: 7 x increase
B11: ch4-4-20 K317N, F423-deleted (antibody)
chain: EPKSCDKTHTCPPCPAPELLGGPSVFLFPPKPKDTLMISRTPEVTCVVVDVSHEDPEVKFNWYVDGVEVHNAKTKPREEQYNSTYRVVSVLTVLHQDWLNGNEYKCKVSNKALPAPIEKTISKAKGQPREPQVYTLPPSREEMTKNQVSLTCLVKGFYPSDIAVEWESNGQPENNYKTTPPVLDSDGSFFLYSKLTVDKSRWQQGNVSCSVMHEALHNHYTQKSLSLSPGK
